Test results reported in US20240025993A1, “CD19 BINDING MOLECULES AND USES THEREOF” (NOVARTIS AG, priority 2020, published 2024).

Tests used:
[1] = Aggregation propensity (% HMW) by analytical SEC of IgG1 anti-CD3 antibody and Fc variants (Example 35); type: physicochemical; conditions: PBS pH 7.4, anti-CD3 antibodies
Description: Size exclusion chromatography measurements were performed to evaluate the aggregation propensity (% HMW) of IgG1 antibody and Fc modified derivatives. The produced and purified anti CD3 antibodies were applied to an analytical size exclusion chromatography column (SEC 200, GE Healthcare), equilibrated with PBS buffer pH 7.4.

[2] = Differential scanning calorimetry, melting temperature of Fc modified anti-CD3 antibodies (Example 35); type: physicochemical; conditions: DSC, 1 mg/ml in PBS pH 7.4, anti-CD3 IgG1 Fc variants
Description: Calorimetric measurements were carried out on a differential scanning micro calorimeter (Nano DSC, TA instruments). The cell volume was 0.5 ml and the heating rate was 1° C./min. All proteins were used at a concentration of 1 mg/m in PBS (pH 7.4). The molar heat capacity of each protein was estimated by comparison with duplicate samples containing identical buffer from which the protein had been omitted. The partial molar heat capacities and melting curves were analyzed using standard procedure. Thermograms were baseline corrected and concentration normalized.

[3] = tested on: Jurkat NFAT luciferized (JNL) cells with THP-1 cells; assay: Anti-CD3 NFAT signalling assay, JNL + THP-1 cells (Example 36); type: cell-based, human
Description: Jurkat reporter gene assay (RGA) for the nuclear factor of activated T-cells (NFAT) pathway was performed using Jurkat NFAT luciferized (JNL) cells and THP-1 cells (ATCC, TIB202). THP-1 cells express FcγRI, FcγRII, and FcγRIII. Cells were co-incubated for 6 hours at 37° C., 5% CO2 at a 5:1 effector to tumor ratio with each sample at the various concentrations depicted. An equal volume of ONE-Glo™ reagent (Promega, E6110) was added to the culture volume. Plate was shaken for 2 minutes, then incubated for an additional 8 minutes protected from light. For JNL+ THP+IFNg experiment, THP-1 cells were pre-treated with 100 u/mL IFNg for 48 hours at 37° C., 5% CO2 before co-culture. IFNg stimulation increases FcγRI expression. Luciferase activity was quantitated on the EnVision plate reader (PerkinElmer). Data was analyzed and fit to a 5 parameter-logistic curve using GraphPad Prism.

[4] = target: human FcγR1A (Homo sapiens, UniProt P12314); assay: SPR binding of Fc modified anti-CD3 IgG1 antibodies (Example 34); conditions: anti-CD3 IgG1 antibody immobilized
Description: Surface plasmon resonance (SPR) experiments were performed to analyze the interaction of human activating receptors FcγR1A, FcγR3A (V158) and human C1q with IgG1 WT and antibody-Fc variants. Binding kinetics and their relative binding affinities were explored. The binding affinity is an important characteristic of an interaction between an antibody and an antigen. The equilibrium dissociation constant (KD) defines how strong the interaction is and therefore how much antibody-antigen complex is formed at equilibrium.
The knowledge of the antibody characteristics is not only essential during selection of the best therapeutic antibody candidate, but also important to understand the in vivo behavior and potentially predict cellular immune responses. […] Binding to human C1q was evaluated. […] SPR measurements were measured on a Biacore T200 (GE-Healthcare Life Sciences) controlled by Biacore T200 control software version 2.0.1. […]
The antibodies were covalently immobilized on a CM5 sensor chip whereas Fc gamma receptors or human C1q served as analytes in solution (FIG. 38). […] Zero concentration samples (blank runs) were measured for both methods to allow double-referencing during data evaluation.
Data were evaluated using the Biacore T200 evaluation software. […] In addition, the maximum response reached during the experiment was monitored. […]

[5] = tested on: T cells co-cultured with OCI-LY-19, Karpas422 or Toledo target cells; assay: TBM and BBM mediated T cell proliferation (Example 20); type: cell-based, human; conditions: in the presence of OCI-LY-19 and Toledo cells; E:T 1:3, 96 hrs
Description: Briefly, OCI-LY-19, Karpas422, and Toledo target cells stably expressing firefly luciferase were plated in a 96 well plate in T Cell Media (TCM) (RPMI-1640, ThermoFisher Scientific, Cat #11875-085), 10% FBS (Seradigm, Cat #1500-500), 1% L-Glutamine (Thermo Fisher Scientific, Cat #25830-081), 1% Non Essential Amino Acids (Thermo Fisher Scientific, Cat #11140-050),1% Pen/Strep (Thermo Fisher Scientific, Cat #15070063), 1% HEPES (Thermo Fisher Scientific, Cat #15630080), Sodium Pyruvate (Thermo Fisher Scientific, Cat #11360-070), 0.1% Beta-mercaptoethanol (Thermo Fisher Scientific, Cat #21985-023)]. PBMCs previously isolated and cryopreserved from 2 Leukopak donors were thawed and Pan T cells were isolated (as described earlier). Isolated T cells were labelled with 5 μM Cell Trace Violet (CTV) (Thermo Fisher Scientific, Cat #C34557) following the manufacturer's protocol and were co-cultured with target cells at an E:T ratio of 1:3. A dilution series of CD3med TSP1, CD3hi TSP1, CD3hi BSP1, CD3hi TSP1C, and blinatumomab ranging from 2.5 nM-0.0006 nM was added to cells and the plates were incubated in a 5% CO2, 37° C. incubator for 96 hrs. […]

[6] = THP-1 cells preincubated with IFNg (100 u/mL, 48 hours)

Chain of human FcγR1A (P12314 16-374): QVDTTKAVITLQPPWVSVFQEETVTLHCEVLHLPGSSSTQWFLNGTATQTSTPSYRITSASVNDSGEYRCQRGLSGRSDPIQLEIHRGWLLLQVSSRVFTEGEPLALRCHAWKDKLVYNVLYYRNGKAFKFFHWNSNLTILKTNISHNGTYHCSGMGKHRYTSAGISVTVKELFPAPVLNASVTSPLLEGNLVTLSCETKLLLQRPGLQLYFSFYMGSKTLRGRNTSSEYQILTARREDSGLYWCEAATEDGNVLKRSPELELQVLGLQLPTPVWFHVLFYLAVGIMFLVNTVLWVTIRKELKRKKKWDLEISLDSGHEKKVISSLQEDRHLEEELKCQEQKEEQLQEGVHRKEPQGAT

In the case of “DAPA-IgG1: anti-CD3 IgG1 with D265A/P329A; previously described silencing motif [reference compound]”, the “(%) higher molecular weight” value [1] is reported as 3.9%, the “Melting temperature (Tm) of CH2 domain” value [2] is reported as 65 °C and the “NFAT activity (T-cell activation)” value [3, 6] is reported as “some activity remaining”. For the same substance, the “NFAT activity (T-cell activation)” value ([3]; without IFNg, JNL:THP-1 5:1, 6 hours) was “comparable T-cell activation with the exception of DAPA”.

For “LALAGA-IgG1: anti-CD3 IgG1 with L234A/L235A/G237A”, the “(%) higher molecular weight” value [1] was 2.9%, the “Maximum response at 100 nM hFcgammaRIA (RU)” value [4] was 15 RU and the “Melting temperature (Tm) of CH2 domain” value [2] was 70 °C.

In the case of “LALAPA-IgG1: anti-CD3 IgG1 with L234A/L235A/P329A”, the “(%) higher molecular weight” value [1] is reported as 1.8%, the “Melting temperature (Tm) of CH2 domain” value [2] is reported as 70 °C and the “NFAT activity (T-cell activation)” value [3, 6] is reported as “some activity remaining”.

With “LALAPG-IgG1: anti-CD3 IgG1 with L234A/L235A/P329G” the “(%) higher molecular weight” value [1] was 4.2%, the “Maximum response at 100 nM hFcgammaRIA (RU)” value [4] was 18 RU and the “Melting temperature (Tm) of CH2 domain” value [2] was 70 °C.

For “blinatumomab: bispecific T cell engager, or BiTE, that binds to both CD19 and CD3 but lacks an Fc domain [reference compound]”, the “T cell proliferation (% proliferated CD3+ T cells)” value [5] was “most potent T cell proliferation”.
